Reference: the nanobody polyreactivity screen of Harvey et al. (2022)

Test: yeast display, Sf9 membrane polyspecificity reagent, FACS + sequencing; frameworks hold sequencing errors
How it was run: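 Galactose induction of a Saccharomyces cerevisiae BJ5465 synthetic nanobody display library ran 36–48 hours. The cells were then stained for 1 hour at 4 °C with 10% biotinylated, detergent-solubilized Sf9 membrane reagent, pulled down on streptavidin microbeads and FACS-sorted into low and high (top ~1%) gates on expression and reagent-binding fluorescence. Labels for polyreactivity follow the gate of origin.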

| Sequence | polyreactivity (PSR sort gate) |
| --- | --- |
| QVQLVESGGGLVQAGGSLRLSCAASGSTFAYNAMGWYRQAPGKERELVATMSYSGGTTDYADSVKGRFTISRDNAKNTVYLQMNSLKPEDTAVYYCNADHLTWGGWGIRKYDYWGQGTQVTVSS | high polyreactivity |
| QVQLVESGGGLVQAGGSLRLSSAGSGRIFQPYAMGWYRQAPGKERELVAAITRRAGSTYYADSVKGRFTISRDNAKNTVYLQMNSLKPEDTAVYYWAARGLYWAYEMEDWGQGTQVTVSS | low polyreactivity |
| QVQLVESGGGLVQAGGSLRLSCAASGSIFEYTGMGWYRQAPGKERELVAAITTTGTTDYADSVKGRFTISRDNAKNTVYLQMNSLKPEDTAVYYCAADYTYYYKVEYDYWGQGTQVTVSS | low polyreactivity |
| QVQLVESGGGLLQAGGSLRISCAASGRTLFVYDMGWYRQAPGKERDLVAAITGDGSTNYADSVKGRFTISRDNAKNTVYLQMNSLKPEDPAVYYCNAGDRIGFWNTVEYNYWGQGTQVTVSS | low polyreactivity |
| QVQLVESGGGLVQAGGSLRLSCAASGIIFTTNAMGWYRQAPGKERELVATITSGGGTYYADSVKGRFTISRDNAKNTVYLQMNSLKPEDTAVYYCAATPGWGPWIFDHSYVDFDYWGQGTQVTVSS | low polyreactivity |
| QVQLVESGGGLVQAGGSLRLSCAASGRIFQFYAMGWYRQAPGKERELVASISASGARTYYADSVKGRFTISRDNAKNTVYLQMNSLNPEDTAVYYCNVVYFDGNPEDYEYWGKGTQVTVSS | high polyreactivity |
| QVQLVESGGGLVQAGGSLRLSCAASGSIFTKYAMGWYRQAPGKERELVAAISQGGASTRYADSVKGRFTISRDNAKNTVYLQMNSLKPVDTADEYCAAKSRHFWMDYWGQGTQVTVSS | high polyreactivity |
| QVQLVESGGGLVQAGGSLRLSCAASGFTFVTNAMGWYRQAPGKERELVAAISSSGARTYYADSVKGRFTISRDNAKNTVYLQMNSLKPEDTAVYYCAVYYYDFTSTEYGYWGQGTQVTVSS | high polyreactivity |
| QVQLVESGGGLVQAGGSLRLSCAASGSIFRWYTMGWYRQAPGKERELVAAISRSGGSTYYADSVKGRFTISRDNAKNTVYLQMNRLKPEDTAVYYCAADKFRHPYWDRYIYFHYDYWGQGTQVTVSS | low polyreactivity |
| QVQLVESGGGLVQAGGSLRLSCAASGSIFSTYAMGWYRQAPGKERELVAAINRGTSTNYADSVKGRFTISRDNAKNTVYLQMNSLKPEDTAVYYCAAYYRGRYGPRRSEYWGQGTQVTVSS | high polyreactivity |
| QVQLVDSGGGLVQAGGSLRLSCAASGYIFRVYAMGWYRQAPGKERELVAAISGSGGRTYYADSVKGRFTISRDNAKNTVYLQMNSLKPEDTAVYYCAAYRVSDYDYWGQGTQVTVSS | high polyreactivity |
| QVQLVESGGGLVQAGGSLRLSCAASGRINYFYAIVWSRQAPGKEQELVAAISTSGGSTYYADCVKGRFTISRDNAKNTLYLQMNSLTPEETAVYDCAARFRYYGSEYDYWGQGTQVTVSS | low polyreactivity |
| QVQLVESGGGLVQAGGSLRLSCAASGIIFRWNAMGSYRQAPGKERELVAAITRSGGSTYYADSVKGRFTISRDNAKNTVYLQMNSLKPEDTAVYYCAAEYYAPRYKFDYWGQGTQVTVSS | high polyreactivity |
| QVQLVESGGGLVQAGGSLRLSCAASGRMFFRYAMGCYRQAPGKEREFVATITWSGGRTHYADSVKGRFTISRDNAKNTVYLQMNSLKPEDTAVYYCAASYHRYAFDYWGQGTQVTVSS | high polyreactivity |
| QVQLVESGGGLVQAGGSLRLSCAASVNTFWYYTMGWYRQAPGKERELVAAITGGGRTYYADSVKGRFTISRDNAKNSVYLQMNSLKPEDTAVYYCAKPWGSDFGSWGQGTQVTVSS | low polyreactivity |
| QVQLVESGGGLVQAGGSLRLSCAASVYTFYKYAMGWYRQAPGKERELVAAISSSGGSTYYADSVKGRFTISRDNAKNTVYLQMNSLKPEDTAVYYCAAYVYSNDYDYWGQGTQVTVSS | high polyreactivity |
| QVQLVESGGGLVQAGGSLRLSCAASGNMFGYYAMGWYRQAPGKERELVARITSGGTTNYADSVKGRFTISRDNAKNTVYLQMNRLKPEDTAVYYCNKDWRRYWLRGDYWGQGTQVTVSS | low polyreactivity |
